Measured values: the RNAGym collection of RNA variant scans (doi:10.1093/molbev/msab373)

B1: Azoarcus group I ribozyme (parent)
chain: GUGCCUUGCGCCGGGAAACCACGCAAGGGAUGGUGUCAAAUUCGGCGAAACCUAAGCGCCCGCCCGGGCGUAUGGCAACGCCGAGCCAAGCUUCGGCGCCUGCGCCGAUGAAGGUGUAGAGACUAGACGGCACCCACCUAAGGCAAACGCUAUGGUGAAGGCAUAGUCCAGGGAGUGGCGAAAGUCACACAAACCGG

Variants of: B1
Assay: reverse-splicing fitness (ratio to wild type); higher = more active; in vitro selection; Mg2+ level not given
Method in brief: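 An in vitro group I ribozyme library with randomized positions was T7-transcribed and gel-purified. In triplicate, 10 pmol RNA in EPPS pH 7.5 was reacted with 50 pmoles of a 30-nt RNA substrate for 1 h at 37 °C across several added MgCl2 levels (1–48 mM), then stopped with EDTA. Products were reverse transcribed from a substrate-complementary primer, PCR-amplified and sequenced (HiSeq 4000). Fitness is a variant's read proportion after selection over that before, normalised to wild type.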

Going from C82A A111C A120C C150U C169A U176C to C82A A111C A120C C150U C169A U176A, the reverse-splicing fitness rises from 0.0126 to 0.0146.

Compared with C82A A111C A120C C150U C169A U176G, C82A A111C A120C A145U C169G U176A is higher in reverse-splicing fitness: 0.00849 for the first, 0.0151 for the second.

Going from C82A A111C A120C A145U C169G U176C to C82A A111C A120C A145U C169G U176G, the reverse-splicing fitness falls from 0.0178 to 0.00709.

Going from C82A A111C A120C C150A U176C to C82A A111C A120C C150A U176A, the reverse-splicing fitness falls from 0.0178 to 0.0118.

Compared with C82A A111C A120C C150A U176G, C82A A111C A120C A145U C150G C169A U176C is higher in reverse-splicing fitness: 0.00759 for the first, 0.0125 for the second.

First: C82A A111C A120C A145U C150G C169A U176G
Second: C82A A111C A120C A145U C150G C169A U176A
The reverse-splicing fitness of the first is lower: 0.00744 for the first, 0.00956 for the second.

Going from C82A A111C A120C C150U C169G U176C to C82A A111C A120C C150U C169G U176G, the reverse-splicing fitness falls from 0.016 to 0.00721.

First: C82A A111C A120C C150U C169G U176A
Second: C82A A111C A120C A145C C150G C169G U176A
The reverse-splicing fitness of the first is higher: 0.0139 for the first, 0.00867 for the second.

Going from C82A A111C A120C A145C C150G C169G U176G to C82A A111C A120C A145C C150G C169G U176C, the reverse-splicing fitness rises from 0.00702 to 0.0101.

Compared with C82A A111C A120C C150U, C82A A111C A120C C150A is lower in reverse-splicing fitness: 0.0169 for the first, 0.0114 for the second.

First: C82A A111C A120C C150G
Second: C82A A111C A120C A145U C150A C169U U176A
The reverse-splicing fitness of the first is lower: 0.0074 for the first, 0.014 for the second.

Going from C82A A111C A120C A145U C150A C169U U176G to C82A A111C A120C A145U C150A C169U U176C, the reverse-splicing fitness rises from 0.00918 to 0.0143.

Going from C82A A111C A120G A145C U176A to C82A A111C A120G A145C U176C, the reverse-splicing fitness rises from 0.0123 to 0.0134.

Compared with C82A A111C A120G A145C U176G, C82A A111C A120C A145U U176G is higher in reverse-splicing fitness: 0.00486 for the first, 0.00692 for the second.

Going from C82A A111C A120C A145U U176A to C82A A111C A120C A145U U176C, the reverse-splicing fitness rises from 0.0147 to 0.0164.

First: C82A A111C A120C C169U
Second: C82A A111C A120C C169A
The reverse-splicing fitness of the first is higher: 0.0124 for the first, 0.00922 for the second.

Going from C82A A111C A120C C169G to C82A A111C A120C A145U C150G C169U U176A, the reverse-splicing fitness falls from 0.0083 to 0.00763.

Going from C82A A111C A120C A145U C150G C169U U176G to C82A A111C A120C A145U C150G C169U U176C, the reverse-splicing fitness rises from 0.00684 to 0.0101.

First: C82A A111C A120G A145C C169A U176G
Second: C82A A111C A120G A145C C169A U176A
The reverse-splicing fitness of the first is lower: 0.0044 for the first, 0.00969 for the second.

Compared with C82A A111C A120G A145C C169A U176C, C82A A111C A120C A145G C150G C169G U176C is higher in reverse-splicing fitness: 0.00724 for the first, 0.0131 for the second.

First: C82A A111C A120C A145G C150G C169G U176A
Second: C82A A111C A120C A145G C150G C169G U176G
The reverse-splicing fitness of the first is higher: 0.0109 for the first, 0.00642 for the second.

Going from C82A A111C A120G A145C C150A C169U U176G to C82A A111C A120G A145C C150A C169U U176C, the reverse-splicing fitness rises from 0.00495 to 0.00893.

Compared with C82A A111C A120G A145C C150A C169U U176A, C82A A111C A120C A145C C150A C169U U176G is lower in reverse-splicing fitness: 0.0142 for the first, 0.00786 for the second.

First: C82A A111C A120C A145C C150A C169U U176C
Second: C82A A111C A120C A145C C150A C169U U176A
The reverse-splicing fitness of the first is lower: 0.0127 for the first, 0.0165 for the second.

First: C82A A111C A120G A145C C150U
Second: C82A A111C A120G A145C C150A
The reverse-splicing fitness of the first is higher: 0.00926 for the first, 0.00818 for the second.

First: C82A A111C A120G A145C C150G
Second: C82A A111C A120C A145G C169U U176G
The reverse-splicing fitness of the first is higher: 0.00724 for the first, 0.00652 for the second.

Compared with C82A A111C A120C A145G C169U U176C, C82A A111C A120C A145G C169U U176A is higher in reverse-splicing fitness: 0.0138 for the first, 0.0165 for the second.

Compared with C82A A111C A120C U176C, C82A A111C A120C U176G is lower in reverse-splicing fitness: 0.0216 for the first, 0.00722 for the second.

Going from C82A A111C A120C U176A to C82A A111C A120C A145G C150G C169A U176G, the reverse-splicing fitness falls from 0.0134 to 0.00798.

Going from C82A A111C A120C A145G C150G C169A U176A to C82A A111C A120C A145G C150G C169A U176C, the reverse-splicing fitness falls from 0.0153 to 0.0121.

First: C82A A111C A120C A145G C150A U176A
Second: C82A A111C A120C A145G C150A U176G
The reverse-splicing fitness of the first is higher: 0.00956 for the first, 0.00865 for the second.

First: C82A A111C A120C A145G C150A U176C
Second: C82A A111C A120C A145G C150G C169G
The reverse-splicing fitness of the first is higher: 0.0232 for the first, 0.00793 for the second.

Compared with C82A A111C A120C A145G C150G C169A, C82A A111C A120C A145G C150G C169U is higher in reverse-splicing fitness: 0.00894 for the first, 0.00903 for the second.

First: C82A A111C A120C A145G C169A U176G
Second: C82A A111C A120C A145G C169A U176A
The reverse-splicing fitness of the first is lower: 0.00684 for the first, 0.0249 for the second.

Going from C82A A111C A120C A145G C169A U176C to C82A A111C A120C A145C C150A C169G U176A, the reverse-splicing fitness rises from 0.0288 to 0.0296.

Going from C82A A111C A120C A145C C150A C169G U176C to C82A A111C A120C A145C C150A C169G U176G, the reverse-splicing fitness falls from 0.024 to 0.00757.

Going from C82A A111C to C82A A111C A120C A145C C150U C169A U176C, the reverse-splicing fitness falls from 0.228 to 0.0112.

First: C82A A111C A120C A145C C150U C169A U176G
Second: C82A A111C A120C A145C C150U C169A U176A
The reverse-splicing fitness of the first is lower: 0.00751 for the first, 0.0145 for the second.

First: C82A A111C A120C A145U C150A C169G U176G
Second: C82A A111C A120C A145U C150A C169G U176C
The reverse-splicing fitness of the first is lower: 0.00745 for the first, 0.0188 for the second.

Compared with C82A A111C A120C A145U C150A C169G U176A, C82A A111C A120C A145G C150A C169A U176C is higher in reverse-splicing fitness: 0.0154 for the first, 0.019 for the second.

Going from C82A A111C A120C A145G C150A C169A U176A to C82A A111C A120C A145G C150A C169A U176G, the reverse-splicing fitness falls from 0.0209 to 0.009.

Going from C82A A111C A120C A145G C150U C169U U176C to C82A A111C A120C A145G C150U C169U U176G, the reverse-splicing fitness falls from 0.0128 to 0.00717.
